Molecular target: the molecule itself
Experiment: SEC; HiLoad 16/600 Superdex 75 pg in PBS or 20 mM sodium phosphate, 200 μM EDTA pH 8; oligomeric state verified in Supporting Figure S2 (method not shown)

B1: Borrelia burgdorferi outer surface protein C (residues 11-191) (natural protein)
chain: ASTNPDESAKGPNLTEISKKITDSNAVVLAVKEVEALLSSIDELAKTIGKKIEANGLGNEADKNGSLLAGAYAISTLIKQKLDGLKGLEGLNKEIAEAKKCSEAFTKKLQDSNADLGKHNATDADSKEAILKTNGTKTKGAKELEELFKSVESLSKAAKEALSNSVKELTSPVVAESPKKP
notes: outer surface protein C of Borrelia burgdorferi sensu lato, UniProt P94245, residues 11-191; the N-terminal signal peptide was replaced by His-tagged polyubiquitin-B and a TEV protease cleavage site; also called OspC; Bb outer surface protein C; not shown: polyubiquitin-B with C-terminal His-tag (UniProt J3QS39), N-terminal, cleaved
stoichiometry N: 2

Source: article PMC12447514, “Modulation of Amyloid‑β Aggregation by Surface Proteins from Pathogens Associated with Alzheimer’s Disease” (ACS Chemical Neuroscience, 2025)
